The DeepSol protein solubility set

Experiment: soluble on expression in E. coli; label from the status in PepcDB or PDB records
For “HHHHHHSKEELLKLTETVVTEYLNSGNANEAVNGVREMRAPKHFLPEMLSKVIILSLDRSDEDKEKASSLISLLKQEGIATSDNFMQAFLNVLDQCPKLEVDIPLVKSYLAQFAARAIISELVSISELAQPLESGTHFPLFLLCLQQLAKLQDREWLTELFQQSKVNMQKMLPEIDQNKDRMLEILEGKGLSFLFPLLKLEKELLKQIKLDPSPQTIYKWIKDNISPKLHVDKGFVNILMTSFLQYISSEVNPPSDETDSSSAPSKEQLEQEKQLLLSFKPVMQKFLHDHVDLQVSALYALQVHCYNSNFPKGMLLRFFVHFYDMEIIEEEAFLAWKEDITQEFPGKGKALFQVNQWLTWLETA”, the “soluble on expression in E. coli” value was “soluble”.
In the case of “MGSDKIHHHHHHNENPDKPTDDVNYNMNEPRLASTLRGGLIIEGNVEQRLKPLQIDFYSQMTVDGGGWGTKNYIQDDEWNNLVWEEYLKQIASINIVIRSLTEKDKDAYANTIAFARIWRVYVHTLAADKFGPMPFPAYEIVEANPPYKSLKDIYDEYFRELDAAINGFNDSAQPIFSDAGIDLIYKNDVSKWKRFANSLRLRLAVRLTEVDQEKCIAEANAAISSPAGLISDKADNAYMPPKADGSWGQDYNYTMFQITWSGPICMSKSVEKLVTNIGGVAWPQGVVNQTSGVAVSSVHPEKVDPRAPKIFQPGIENGDWKGLVYGPKAEEANTGIYQSKQCAELGFIIKDGYPYKSRPYDLFLSEEVHFLKAELYARGFIAGDAKSEYEAGVRASFATWGVTSEVDDYLTSTEKNEAGTSARYDDQQGAGNTALEKIITQKYIAGIPDLAQEGWNDKRRLNLPRLDVAVYRDQAVYNNNDKDILKSANFIKRMRYPTKESLINATEYEKGKSMLGGKGDIVSTPLWWDKNSNYCTSSK”, the “soluble on expression in E. coli” value is reported as “not soluble”.
For “MRIAANACPALVLNADFQPLSYFPLSLWSWQEAVKAVFMDRVCVVSEYDRVVHSPSLDLSLPSVISLKEYVPVAKRAAFTRFNVFLRDGFACQYCGIRLPAHDLTFDHVVPRSKGGVTAWNNVVTACGPCNMRKANRTPREAAMPLLQRPAEPSTHRLRNEGRSFPPGYLHESWRDFLYWDVELDPFLEHHHHHH”, the “soluble on expression in E. coli” value was “not soluble”.
In the case of “MAHHHHHHMADTQPVPATVTSAHGAHAEAFGESFIVTLSSENLRVQLLSHGAALNSVQVRKPHPAASATASASATAEQDDEWLEVCLGYTNPEEALSADAVIGHTIGRYAGRIANGEFEIANTTYTLAKNFGPHNLHGGPVGFQHQEWKYLLSDGRDETGVAFHLVSPHMDQGFPGELFVTATYSIIKSAPVPTLKYVLQASLSDNTPVDMTVINLTNHAYWNLNGVPRPAAADAVAPLPRSIANHYLQLQSKYFAVTDELSIPNGDMRPVEGTPHDYSALRCVAEGMEATKEEGRDGGGYDDPVALETWDSTLREAALVYSPATKLRMQVCTTNPAIVVYTANHLPADASGSKGQRFQQHSAICLECQYFPNSPNVRAFPSTVLKKGEAYNETTIHAFQFMNADITPEEKLLRRQ”, the “soluble on expression in E. coli” value is reported as “soluble”.
With “MGSDKIHHHHHHMTAMRGDGGRVLHTGFGVVRGVLFDIDDTLVDLEYAMTTALRDVSEHLLPGLDQAGWEKFGRIFTHETTHFYDRYLAGELTFNEQRLLRGRAALGHFGVELEEGEESHAWVTSYAALQHGYVRAFEDVAPVLDALDAAGIPYGAVSNNVHDYQRVKLDAAGLQRITVLVGTDTLGVPKPDPAIYLEGVRLLGSSAAETLYVGDNRLLDAEGSTAAGLLGVWLNRSGETESAFAGHQVGSLAELLG” the “soluble on expression in E. coli” value was “not soluble”.
In the case of “KEELESIINSSPVIVFLWKYEEGWPIEFVSENVTRLGYEVEDFTSRKILYGNIVYPGDLEKVERELARNIEFGCEDYSSEYRILTKSGEVRWVDERTFIQRDEKGEIRLQGIILDIT”, the “soluble on expression in E. coli” value is reported as “not soluble”.
In the case of “MRGLLILLLSLICLATPVLAQPVAAEQPLPDIRQRGFVYCVSGILNTFNPQMASSGLTVDTLAAQLYDRLLDVDPYTYRLIPELAESWQVLDNGATYRFHLRKDVPFQTTDWFTPTRMMNADDVVFSFQRVFDSKHPYHKVNGGEYPYFDSLQFASAVKSVKKLDDYTVEFKLKAPDASFLWHLATHYAPVLSSEYADVLTQKGKEEQIDREPVGTGPFLLDEYRSGQYIRLFRNSHYWKGVPRMPQVVIDLGVGGTGRLSKLLTGECDVLAYPAASQLSILRDDPPRLRLTLRPGMNVAYLAFNTRKPPLSDQRVRQAIALSINNQRLMQSIYYGTAETAASILPRASWAYDNQAQVTEYNPEKAKEILKDLGITQLQLNLWVPTASQSYNPSPLKTAELIQADLAQVGISVTIVPVEGRFQEARLMEMNHDLTLSGWSTDSNDPDSFFRPLLSCAAIRSQTNYAHWCDPAFDELLQKALRSQQLSERIEYYQQAQRILEQQLPLLPLASSLRLQAYRYDIKGLVLSPFGNSSFAGVYRESDEGKTP”, the “soluble on expression in E. coli” value is reported as “not soluble”.
With “GPGSMPRYYTPHEVRAHCFEDDAYVSINGKVLDITPLIQMYQGTRYASLLQPLILAAGTDMTHLLDKKTMDFKTCIDPETGFRTYAQPFGRFAHTPTVLPDSSIDLSYEVPWWQDERYVIGQLTRKTRKIRIVNTLNGHEHTLEVCSEETLREIVMTRYLSHNAHALSYTWRRLDSEPRDLDMDKTLDENGVLDESEEFESLGLNADYYIPALHLYYDDDLTEA” the “soluble on expression in E. coli” value was “soluble”.
With “MGSDKIHHHHHHMIEMTRMAACAAVHHDTQATQTGAAYAPAEQGGEPRESSASAYFWVGIDAGGSHCRALLTDDSGQVLGHGVAGPANPVNGVSQSQAAIMSAIDKALGAARLDKQYHRLIVGAGLAGLHLPKMQQVMNEWAHPFAAWHTTTDLHVAALGAHQGADGGVIILGTGFSSLANVKGQQILIGGHGFPINATCSGSWFGLEAVKAVLLDADGIGPGTSLTGKLLQGTNAMALAEQLMHANATDFARFAPQVFEQAGAGDAVSLSLIEQGATFINGVIRRLLATGIDSLSLVGGIAPLMQPWLAPDLSTRIRTAKASPEEGAILFARQCHVGNSRIQER” the “soluble on expression in E. coli” value was “not soluble”.
With “MMKLNLFINANETESYIDIHAPKMNDHVQSIINAVNDLDKSHTLVGYIDKEIHIINVSDVITFQVINKNVTAITSNQKFKLKLRLYELEKQLPQHFIRISKSEIVNKYYIEKLLLEPNGLIRMYLKDAHYTYSSRRYLKSIKERLSI” the “soluble on expression in E. coli” value was “not soluble”.
With “SPSAQELKEQGNRLFVGRKYPEAAACYGRAITRNPLVAVYYTNRALCYLKMQQPEQALADCRRALELDGQSVKAHFFLGQCQLEMESYDEAIANLQRAYSLAKEQRLNFGDDIPSALRIAKKKRWNSIEERRIHQESELHSYLTRLIAAERERELEECQRNHEGHEDDGHIRAQQACIEAKHDKYMADMDELFSQVDEKRKKRDIPDYLCGKISFELMREPCITPSGITYDRKDIEEHLQRVGHFNPVTRSPLTQEQLIPNLAMKEVIDAFISENGWVEDY” the “soluble on expression in E. coli” value was “soluble”.
In the case of “ELPKKRELCKFYITGFCARAENCPYMHGDFPCKLYHTTGNCINGDDCMFSHDPLTEETRELLDKMLADDAEAGAEDEKEVEELKK”, the “soluble on expression in E. coli” value is reported as “soluble”.
For “MSCGYTGPINEQNKENIKRAIAMHAAARRTRMLQQLREGLQLYRLVDIMEKNKEVCRSHFVFEGGNDQVDSQYIVSHLDPKMSESGTLKHSKEMQILNNFQDFLMELEDGGPEDEEALCVSKVMQWLSGQAHVHLLLSERQAFKITVLFDHTCMERMPDHRICYPVDSAWTQTITFPTAHSTSLNQFKENMRIAVQQGAYFYRV”, the “soluble on expression in E. coli” value was “not soluble”.
With “MGSSHHHHHHSSGLVPRGSHMIMLRIPTRSYCSPSKLIKGVGLSPLKKSLLSKKIKEDIHPSLPVRTRFAPSPTGFLHLGSLRTALYNYLLARNTNGQFLLRLEDTDQKRLIEGAEENIYEILKWCNINYDETPIKQSERKLIYDKYVKILLSSGKAYRCFCSKERLNDLRHSAMELKPPSMASYDRCCAHLGEEEIKSKLAQGIPFTVRFKSPERYPTFTDLLHGQINLQPQVNFNDKRYDDLILVKSDKLPTYHLANVVDDHLMGITHVIRGEEWLPSTPKHIALYNAFGWACPKFIHIPLLTTVGDKKLSKRKGDMSISDLKRQGVLPEALINFCALFGWSPPRDLASKKHECFSMEELETIFNLNGLTKGNAKVDDKKLWFFNKHFLQKRILNPSTLRELVDDIMPSLESIYNTSTISREKVAKILLNCGGSLSRINDFHDEFYYFFEKPKYNDNDAVTKFLSKNESRHIAHLLKKLGQFQEGTDAQEVESMVETMYYENGFSRKVTYQAMRFALAGCHPGAKIAAMIDILGIKESNKRLSEGLQFLQREKK” the “soluble on expression in E. coli” value was “soluble”.
For “MGSDKIHHHHHHMDHQIEDFLEHWLPLADDAWVLAVITQIQGSAYRKPGAMMLFHEFGQGVGMLSGGCLEADLRRHAQKAMQTKQVTCVTYDASDESDASYRLGCGGIVDIMLIPLLKENHDLGLIELVQAFRHGRSGFYQLPLVKAGTDARQYQAAFYPEALTPFPASDFVRTGVFTQEAGESLIIPLRPRFHLGIFGGGIDAKPIAAMADTLGWQVTVFDGRTAYARAADFPHAHIVKLTAGELTANHIAQLDCAVVMNHNLGLDAVALKVIQAHPLAYVALLGPAHRRDKVLGMAGLSTESFSGVFSAPAGLALGGELPSAVALSILAQCHGVLHGATLKHLDEIMR”, the “soluble on expression in E. coli” value was “not soluble”.
In the case of “MSAKQKELERLLELKKKQEEQQVLNQKDMLERIKLENKYMEFLQMTSQQMEEELKKRGPVKEVEVKGKDIDPIIADYKKLYSKESWYKEPETKDGKTHLTFPSQEAAGTFFKDQAEKNRSFIVIDAATNKVLAYSNGDGKLYNGNGSLYQGGDFKASKEDFTSFKMPEREEPKMGMQL”, the “soluble on expression in E. coli” value is reported as “not soluble”.
For “MSRFTDKVAIITGSSNGIGQATARLLASEGAKVTVTGRNAERLEETKNILLGAGVPEGNVLVVVGDITQESVQENLIKSTLDKFGKIDILVNNAGAGIPDAQGKSGVNQSIDTYHKTFELNVQSVIEMTQKARPHLAKTQGEIVNISSIGAGPAAQVASPYYSIAKAALDQYTRTAAIDLVPEGIRVNSVSPGAVSTGFSAVSRGLTEEKSKAFYDYLGAQRECIPRGFCAVPEDIAKVIAFLADRNASNYIIGQTIVADGGTSLILGAHAHGAKMMQAVFKEL”, the “soluble on expression in E. coli” value was “not soluble”.
With “IALGGGAAKGFAHIGVLKMLEANGLAPSVVAGTSAGSVVGALYASGMDSFKIQTKAVAMDESNIRDLRFFSGGLVQGQKLQNYVNELVGKRPIEKLNMPFGAIATRLEDGQRTMFVRGNVGEAVRASCSIPGVFEPVTIGAYHYVDGGITSPVPV” the “soluble on expression in E. coli” value was “not soluble”.
With “GPGSMYARYRTRSRFYKRPEKMLKAYNVSPNLLRLPKVKPGLLKGIYTDEKIDLRDRERLELVESIRHPKERDFYQDHTYHNQWIARDLESHQKIQIAGRYPYFSPDYEIKPWIWYPGDTVEVVSGEGAGQRGAIIAVVKYKNEILVQNVNVQDVVIPASETRPEQVVQREHPISVLRVRHVDPSTNQLCHLEIVKVRNKETGELEERRISLESGALLPIPAPEETVEAGDPLKDTAIQDADEETYDREKEMPLLVVRRLQAMENYFVDSLQKSHEYHKALQMRNAQDMQTFQKDVLVRATEKLAAAAAVFGHGAMAEAGSQAASVASESSQAGDAEEDAVKGTITVETVVAEVLKSEQRFRSDAAAPGVPGWWQNMIDAYVSVLEEEEATIEAEAAAQAQAAEADRRAEQLMADATAEVGQSMEEDGTMEGGDEDLDEQDGDLDEDSSRSDRSK” the “soluble on expression in E. coli” value was “not soluble”.
In the case of “MGSDKIHHHHHHMIFLIFSILFLHLANCDYTPDWESLDNRPLPSWYDDSKFGIFCHWGLYSDDNDKNKKYKTRSEWMWWYWKGTQPDKDVVNFVDKNYKPGTTYADFAKDVCNILLFAIESDFCSLPQSISMRINLLKLYFVFTSKHHEGFTMWPSRTSWNWNSMDIGPKRDIVGELRDAFKKTDVHFGLYFSQFEWFHPMFLDDGKFNTTFYPEQVSYPQMIDIVTKYNPEVVWSDGEWDKSDDYWKAKEFLAWLYNSSPVKDQVVVNDRWGTGTMGKHGGFMTYSDHYDPGKLLEKKWENCMTLDKHSWGNRRDMKASEVNTAYEIIEQLARTIACNGNLLLNVGPNMHGQIPAIFEDRLEEIGRFVNITSEAIFGTRPWIHQNDTSASNVWYVEFQQLSTHVFSGILPNIHRERSH”, the “soluble on expression in E. coli” value is reported as “not soluble”.
